Data as given in patent US20240262905A1 (PANDION OPERATIONS, published 2024).

T1: human DSG-3 (human, UniProt P32926 50-615, limits assumed)
T1 construct: Soluble analyte (Octet) and plate coat (ELISA); also called hDSG-3
T1 sequence (looked up): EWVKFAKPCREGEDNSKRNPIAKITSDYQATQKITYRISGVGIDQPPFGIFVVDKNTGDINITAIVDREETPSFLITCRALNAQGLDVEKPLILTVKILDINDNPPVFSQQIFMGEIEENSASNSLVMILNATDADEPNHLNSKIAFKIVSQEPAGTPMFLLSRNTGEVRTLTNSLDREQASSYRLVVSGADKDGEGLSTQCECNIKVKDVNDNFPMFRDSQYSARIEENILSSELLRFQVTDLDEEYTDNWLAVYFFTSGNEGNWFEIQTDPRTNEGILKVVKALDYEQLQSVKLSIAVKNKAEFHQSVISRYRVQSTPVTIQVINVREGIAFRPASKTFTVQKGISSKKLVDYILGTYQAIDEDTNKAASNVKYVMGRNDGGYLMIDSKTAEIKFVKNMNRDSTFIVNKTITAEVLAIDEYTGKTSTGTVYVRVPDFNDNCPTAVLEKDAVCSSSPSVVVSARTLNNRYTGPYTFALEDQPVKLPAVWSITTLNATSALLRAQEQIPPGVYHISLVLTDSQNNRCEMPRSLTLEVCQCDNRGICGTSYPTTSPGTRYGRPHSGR

T2: human CD25 (human, UniProt P01589 22-213, limits assumed)
T2 construct: construct not described
T2 sequence (looked up): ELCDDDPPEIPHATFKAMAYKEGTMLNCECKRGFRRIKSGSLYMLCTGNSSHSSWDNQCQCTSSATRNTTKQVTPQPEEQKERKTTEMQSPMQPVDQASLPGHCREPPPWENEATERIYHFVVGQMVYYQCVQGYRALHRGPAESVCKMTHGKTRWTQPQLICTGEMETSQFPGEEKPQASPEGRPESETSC

B1: PD1DSGAB3 (bispecific antibody, human IgG1, kappa)
heavy: QVQLVQSGAEVKKPGASVKVSCKASGYSFTTYYMHWVRQAPGQGLEWMGIINPSGGSTSYAQKFQGRVTMTRDTSTSTVYMELSSLRSEDTAVYYCASGWVYWGQGTLVTVSSASTKGPSVFPLAPSSKSTSGGTAALGCLVKDYFPEPVTVSWNSGALTSGVHTFPAVLQSSGLYSLSSVVTVPSSSLGTQTYICNVNHKPSNTKVDKKVEPKSCDKTHTCPPCPAPEAAGAPSVFLFPPKPKDTLMISRTPEVTCVVVDVSHEDPEVKFNWYVDGVEVHNAKTKPREEQYNSTYRVVSVLTVLHQDWLNGKEYKCKVSNKALPAPIEKTISKAKGQPREPQVYTLPPSREEMTKNQVSLTCLVKGFYPSDIAVEWESNGQPENNYKTTPPVLDSDGSFFLYSKLTVDKSRWQQGNVFSCSVMHEALHNHYTQKSLSLSPGGGGGSGGGGSGGGGSELQMTQSPSSLSASVGDRVTITCQASQDIGNYLNWYQQKPGKAPKLLIYDASYLETGVPSRFSGSGSGTDFTFTISSLQPEDIATYYCQQYDNLPFTFGPGTKVDIKGGGGSGGGGSGGGGSGGGGSEVQLVESGGGLVQPGRSLRLSCAASGFTFDDYAMHWVRQAPGKGLEWVSGISWNSGSIDYADSVKGRFTISRDNAKNSLYLQMNSLRVEDTALYYCAKDGSRVFGVGGGFDFWGQGTMVTVSS
light: not shown
notes: Anti-PD-1 agonist human IgG1 with an SD3 anti-desmoglein scFv at the C-terminus of each heavy chain; copies: 2 + 2
B2: PD1DSGAB1 (bispecific antibody)
heavy: QVQLVQSGAEVKKPGASVKVSCKASGYSFTTYYMHWVRQAPGQGLEWMGIINPSGGSTSYAQKFQGRVTMTRDTSTSTVYMELSSLRSEDTAVYYCASGWVYWGQGTLVTVSSASTKGPSVFPLAPSSKSTSGGTAALGCLVKDYFPEPVTVSWNSGALTSGVHTFPAVLQSSGLYSLSSVVTVPSSSLGTQTYICNVNHKPSNTKVDKKVEPKSCDKTHTCPPCPAPEAAGAPSVFLFPPKPKDTLMISRTPEVTCVVVDVSHEDPEVKFNWYVDGVEVHNAKTKPREEQYNSTYRVVSVLTVLHQDWLNGKEYKCKVSNKALPAPIEKTISKAKGQPREPQVYTLPPSREEMTKNQVSLTCLVKGFYPSDIAVEWESNGQPENNYKTTPPVLDSDGSFFLYSKLTVDKSRWQQGNVFSCSVMHEALHNHYTQKSLSLSPGGGGGSGGGGSGGGGSQSVLTQPPSVSGTPGQRVTISCSGSSSHIGSNYVYWYQQLPGTAPKILIYSNDQRPAGVPDRFSASKSGTSASLAISGLRSEDEADYYCAAWDDGQGGVFGGGTKLTVLGGGGSGGGGSGGGGSGGGGSQVQLQESGPGPVKPSGTLSLTCGVSGGSISSNHWWTWVRQPPGKGLEWIGEIYHNGSTFLNPSLKSRVTISVDKSNNQFSLKLTSVTAADTAVYYCARGWHRTGFRGYPSHWYFDLWGRGTLVSVSS
light: not shown
notes: Anti-PD-1 agonist human IgG1 with an SD1 anti-desmoglein scFv at the C-terminus of each heavy chain (PD-1 ML-N format)
B3: IL2DSGAB4 (other)
heavy: QVQLVQSGGGVVQSGRSLRLSCAASGFTFSDYAMHWVRQAPGKGLEWVAVISHGGTKKYTGDSVKGRFIISRDNSKNTVFLQMNSLRVEDTAVYYCARDRVEGYVWGGTFDHWGQGTPVTVSSASTKGPSVFPLAPSSKSTSGGTAALGCLVKDYFPEPVTVSWNSGALTSGVHTFPAVLQSSGLYSLSSVVTVPSSSLGTQTYICNVNHKPSNTKVDKKVEPKSCDKTHTCPPCPAPEAAGAPSVFLFPPKPKDTLMISRTPEVTCVVVDVSHEDPEVKFNWYVDGVEVHNAKTKPREEQYNSTYRVVSVLTVLHQDWLNGKEYKCKVSNKALPAPIEKTISKAKGQPREPQVYTLPPSREEMTKNQVSLTCLVKGFYPSDIAVEWESNGQPENNYKTTPPVLDSDGSFFLYSKLTVDKSRWQQGNVFSCSVMHEALHNHYTQKSLSLSPGGGGGSAPTSSSTKKTQLQLEHLLLDLQMILNGINNYKNPKLTRMLTFKFYMPKKATELKHLQCLEEELKPLEEALNLAPSKNFHLRPRDLISDINVIVLELKGSETTFMCEYADETATIVEFINRWITFSQSIISTLT
light: ELVLTQPPSVPVAPGQTANISCGGNNIGRQTVHWYQQKPGQAPVLVVFDDSDRPAGIPERFSGSNSGNTATLTISRVEAGDEADYYCQVWDSSSDHVVFGGGTQLTVLGQPKAAPSVTLFPPSSEELQANKATLVCLISDFYPGAVTVAWKADSSPVKAGVETTTPSKQSNNKYAASSYLSLTPEQWKSHRSYSCQVTHEGSTVEKTVAPTECS
notes: SD4 anti-desmoglein human IgG1 with the IL-2 mutein fused to the C-terminus of the heavy chain; copies: 2 + 2
B4: PD1DSGAB4 (bispecific antibody, human IgG1, kappa)
heavy: QVQLVQSGAEVKKPGASVKVSCKASGYSFTTYYMHWVRQAPGQGLEWMGIINPSGGSTSYAQKFQGRVTMTRDTSTSTVYMELSSLRSEDTAVYYCASGWVYWGQGTLVTVSSASTKGPSVFPLAPSSKSTSGGTAALGCLVKDYFPEPVTVSWNSGALTSGVHTFPAVLQSSGLYSLSSVVTVPSSSLGTQTYICNVNHKPSNTKVDKKVEPKSCDKTHTCPPCPAPEAAGAPSVFLFPPKPKDTLMISRTPEVTCVVVDVSHEDPEVKFNWYVDGVEVHNAKTKPREEQYNSTYRVVSVLTVLHQDWLNGKEYKCKVSNKALPAPIEKTISKAKGQPREPQVYTLPPSREEMTKNQVSLTCLVKGFYPSDIAVEWESNGQPENNYKTTPPVLDSDGSFFLYSKLTVDKSRWQQGNVFSCSVMHEALHNHYTQKSLSLSPGGGGGSGGGGSGGGGSELVLTQPPSVPVAPGQTANISCGGNNIGRQTVHWYQQKPGQAPVLVVFDDSDRPAGIPERFSGSNSGNTATLTISRVEAGDEADYYCQVWDSSSDHVVFGGGTQLTVLGGGGSGGGGSGGGGSGGGGSQVQLVQSGGGVVQSGRSLRLSCAASGFTFSDYAMHWVRQAPGKGLEWVAVISHGGTKKYTGDSVKGRFIISRDNSKNTVFLQMNSLRVEDTAVYYCARDRVEGYVWGGTFDHWGQGTPVTVSS
light: not shown
notes: Anti-PD-1 agonist human IgG1 with an SD4 anti-desmoglein scFv at the C-terminus of each heavy chain; copies: 2 + 2
B5: IL2DSGAB7 (other)
heavy: EVQLVESGGGLVQPGRSLRLSCAASGFTFDDYAMHWVRQAPGKGLEWVSGISWNSGSIDYADSVKGRFTISRDNAKNSLYLQMNSLRVEDTALYYCAKDGSRVFGVGGGFDFWGQGTMVTVSSASTKGPSVFPLAPSSKSTSGGTAALGCLVKDYFPEPVTVSWNSGALTSGVHTFPAVLQSSGLYSLSSVVTVPSSSLGTQTYICNVNHKPSNTKVDKKVEPKSCDKTHTCPPCPAPEAAGAPSVFLFPPKPKDTLMISRTPEVTCVVVDVSHEDPEVKFNWYVDGVEVHNAKTKPREEQYNSTYRVVSVLTVLHQDWLNGKEYKCKVSNKALPAPIEKTISKAKGQPREPQVYTLPPSREEMTKNQVSLTCLVKGFYPSDIAVEWESNGQPENNYKTTPPVLDSDGSFFLYSKLTVDKSRWQQGNVFSCSVMHEALHNHYTQKSLSLSPG
light: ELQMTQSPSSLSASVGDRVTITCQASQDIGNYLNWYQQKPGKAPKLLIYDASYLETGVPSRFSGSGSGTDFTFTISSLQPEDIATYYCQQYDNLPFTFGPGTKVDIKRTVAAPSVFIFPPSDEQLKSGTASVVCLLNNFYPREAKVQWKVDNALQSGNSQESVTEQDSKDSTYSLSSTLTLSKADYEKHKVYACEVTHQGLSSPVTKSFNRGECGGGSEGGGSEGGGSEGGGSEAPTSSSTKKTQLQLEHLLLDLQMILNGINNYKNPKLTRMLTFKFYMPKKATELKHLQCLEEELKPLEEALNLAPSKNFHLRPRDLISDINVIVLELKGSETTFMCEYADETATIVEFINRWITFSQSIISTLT
notes: also called TL2DSGAB7
B6: IL2DSGAB3 (other)
heavy: EVQLVESGGGLVQPGRSLRLSCAASGFTFDDYAMHWVRQAPGKGLEWVSGISWNSGSIDYADSVKGRFTISRDNAKNSLYLQMNSLRVEDTALYYCAKDGSRVFGVGGGFDFWGQGTMVTVSSASTKGPSVFPLAPSSKSTSGGTAALGCLVKDYFPEPVTVSWNSGALTSGVHTFPAVLQSSGLYSLSSVVTVPSSSLGTQTYICNVNHKPSNTKVDKKVEPKSCDKTHTCPPCPAPEAAGAPSVFLFPPKPKDTLMISRTPEVTCVVVDVSHEDPEVKFNWYVDGVEVHNAKTKPREEQYNSTYRVVSVLTVLHQDWLNGKEYKCKVSNKALPAPIEKTISKAKGQPREPQVYTLPPSREEMTKNQVSLTCLVKGFYPSDIAVEWESNGQPENNYKTTPPVLDSDGSFFLYSKLTVDKSRWQQGNVFSCSVMHEALHNHYTQKSLSLSPGGGGGSAPTSSSTKKTQLQLEHLLLDLQMILNGINNYKNPKLTRMLTFKFYMPKKATELKHLQCLEEELKPLEEALNLAPSKNFHLRPRDLISDINVIVLELKGSETTFMCEYADETATIVEFINRWITFSQSIISTLT
light: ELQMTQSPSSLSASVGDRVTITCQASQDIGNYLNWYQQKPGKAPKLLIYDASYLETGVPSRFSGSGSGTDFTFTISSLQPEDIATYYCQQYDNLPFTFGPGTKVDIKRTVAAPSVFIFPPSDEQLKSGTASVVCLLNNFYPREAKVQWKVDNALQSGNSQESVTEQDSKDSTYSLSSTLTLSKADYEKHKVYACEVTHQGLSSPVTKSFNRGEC
notes: SD3 anti-desmoglein human IgG1 with the IL-2 mutein fused to the C-terminus of the heavy chain; copies: 2 + 2

Experiments:
human PD-1 = biological target: T3, human PD-1 (human, UniProt Q15116 25-167); assay: BLI (Octet), test article captured on anti-human Fc biosensors, human PD-1 as analyte, 1:1 global fit
T3 construct: Soluble analyte in the Octet assay
T3 sequence (Q15116 25-167 limits assumed): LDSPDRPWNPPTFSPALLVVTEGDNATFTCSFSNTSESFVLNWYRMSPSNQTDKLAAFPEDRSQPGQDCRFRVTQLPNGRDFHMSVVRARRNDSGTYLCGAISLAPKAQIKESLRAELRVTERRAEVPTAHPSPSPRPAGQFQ

Insulin = biological target: T4, Insulin; assay: ELISA, plate coated with insulin 5 ug/mL, test article at 100 nM, anti-human Fc-HRP detection
T4 construct: Plate coat in the polyreactivity ELISA

[1] = biological target: PD-1 on PD-1 reporter Jurkat cells (human, UniProt Q15116 25-288); assay: cell-based or functional assay
Sequence of PD-1 on PD-1 reporter Jurkat cells (Q15116 25-288): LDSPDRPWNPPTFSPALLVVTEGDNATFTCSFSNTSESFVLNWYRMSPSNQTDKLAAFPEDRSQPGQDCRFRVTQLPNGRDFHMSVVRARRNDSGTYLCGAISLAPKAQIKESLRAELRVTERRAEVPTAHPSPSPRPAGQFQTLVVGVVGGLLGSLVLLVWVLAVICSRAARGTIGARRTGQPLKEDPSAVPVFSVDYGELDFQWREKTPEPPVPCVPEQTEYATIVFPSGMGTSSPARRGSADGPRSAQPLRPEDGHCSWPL

human DSG-3 [2] = biological target: T1, human DSG-3; assay: bridging ELISA, plate coated with hDSG-3, test article at 100 nM, then his-tagged hCD25 1 ug/mL, anti-His-HRP detection
human DSG-3 [3] = biological target: T1, human DSG-3; assay: bridging ELISA, plate coated with hDSG-3, test article at 10 nM, then his-tagged hCD25 1 ug/mL, anti-His-HRP detection
human DSG-3 [4] = biological target: T1, human DSG-3; assay: bridging ELISA, plate coated with hDSG-3, test article at 1 nM, then his-tagged hCD25 1 ug/mL, anti-His-HRP detection
human CD25 = biological target: T2, human CD25; assay: BLI (Octet), test article captured on anti-human Fc biosensors, 1:1 global fit (method text names desmogleins as analyte; result told for human CD25)

Row | Binder | Kd (human PD-1) | Insulin polyreactivity score (Insulin) | SHP-2 recruitment in PD-1 reporter Jurkat cells (test article on anti-human IgG coated plate), EC50 at 2 hours [1] | SHP-2 recruitment in PD-1 reporter Jurkat cells (test article on anti-human IgG coated plate), EC50 at 24 hours [1] | absorbance (OD450 nm) (human DSG-3 [2]) | absorbance (OD450 nm) (human DSG-3 [3]) | absorbance (OD450 nm) (human DSG-3 [4]) | Kd (human CD25)
1 | B1 | 328 nM | 1.7 |  |  |  |  |  | 
2 | B2 | 123 nM | 1.3 | 107 nM | 11.2 nM |  |  |  | 
3 | B3 |  | 3.1 |  |  | 1.16 | 0.545 | 0.194 | 
4 | B4 | 243 nM |  |  |  |  |  |  | 
5 | B5 |  |  |  |  | 1.2 | 0.55 | 0.36 | 3.5 nM
6 | B6 |  | 2.9 |  |  | 0.756 | 0.628 | 0.508 | 
